# Reference: patent publication US20160177307
# System: T1, VEGF-121 (Homo sapiens), P15692-9
# T1 sequence: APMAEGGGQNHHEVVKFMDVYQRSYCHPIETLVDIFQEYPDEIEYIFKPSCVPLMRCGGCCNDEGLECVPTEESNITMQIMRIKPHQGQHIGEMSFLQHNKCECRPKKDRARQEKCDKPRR
# Assay: filter
# [1] = as 4867-31_192, PS 3' of 17 as printed, 3' inverted dT
sequence,measurement,setting,value
CCGTTCAAGTGCTTTAGGATTTAAATGG [4867-31_190],Kd,"NapdU at P, C3 spacer 15, 2'-OMe 9,17,18,22,28,29 as printed",0.089 nM
AGCCGTTCAAGTGCTTGTAGGATTTAAATGGA [4867-31_66],Kd,"P=Nap-dU, 2'-OMe G2",0.17 nM
AGCCGTTCAAGTGCTTGTAGGATTTAAATGGA [4867-31_75],Kd,"P=Nap-dU, 2'-OMe G11",0.15 nM
AGCCGTTCAAGTGCTTTAGGATTTAAATGGA [4867-31_98],Kd,"C3 spacer at 17, all P are NapdU, C3 at G17",0.1 nM
CCGTTCAAGTGCTTTAGATTTAAATGG [4867-31_186],Kd,"NapdU at P, C3 spacer 15,18, 2'-OMe 1,6,9,12,17,25,28,29",1.6 nM
CCTCCATCAGCCGTTCAAGTGCTTGTAGGATTTAAATGGAATTGGAGGA [4867-15_25],Kd,"P=Nap-dU, C3 spacer at 2",0.13 nM
CCCTCCTCAGCCGTTCAAGTGCTTGTAGGATTTAAATGGAATTGGAGGA [4867-15_30],Kd,"P=Nap-dU, C3 spacer at 7",0.11 nM
CCGTTCAAGTGCTTGTAGGATTTAAATGG [4867-31_415],Kd,"as 4867-31_192, PS 3' of 8, 3' inverted dT",0.011 nM
CCGTTCAAGTGCTTGTAGGATTTAAATGG [4867-31_427],Kd,"as 4867-31_192, PS 3' of 25, 3' inverted dT",0.0081 nM
CCGTTCAAGTGCTTGTAGGATTTAAATGG [4867-31_417],Kd,"as 4867-31_192, PS 3' of 11, 3' inverted dT",0.0094 nM
CCGTTCAAGTGCTTGTAGGATTTAAATGG [4867-31_481],Kd,"as 4867-31_192 plus 2'-OMe C1 and PS 3' of A24,A25,A26, 3'-idT",0.026 nM
CCCTCCATCAGCCGTTCAAGTGCTTTAGGATTTAAATGGAATTGGAGGA [4867-15-49],Kd,"C3 spacer at 26 as stated in text numbering is nearby G (single V in SEQ:614), all P are NapdU, C3 spacer at G26 tolerated",0.079 nM
CCCTCCACAGCCGTTCAAGTGCTTGTAGGATTTAAATGGAATTGGAGGA [4867-15_31],Kd,"P=Nap-dU, C3 spacer at 8",0.095 nM
CCGTTCAAGTGCTTGTAGGATTTAAATGG [4867-31_154],Kd,"NapdU at P, 2'-OMe 4",5.9 nM
"CCCTCCATCAGCCGTTCAAGTGCTTGTAGGATTTAAATGGAATTGGAGGA [4867-31_2 (4867-15_2, 50-mer)]",Kd,"all P are NapdU, rest DNA, 50-mer parent",0.15 nM
CCCTCCATCAGCCGTTCAGTGCTTGTAGGATTTAAATGGAATTGGAGGA [4867-15_42],Kd,"P=Nap-dU, C3 spacer at 19",31 nM
CCGTTAAAGTGCTTGTAGGATTTAAATGGA [4867-31_145],Kd,P=Nap-dU,3.08 nM
CCCTCATCAGCCGTTCAAGTGCTTGTAGGATTTAAATGGAATTGGAGGA [4867-15_28],Kd,"P=Nap-dU, C3 spacer at 5",0.34 nM
CCCTCCATCAGCCGTTCAAGTGCTTGTAGGATTTAAATGGAATGGAGGA [4867-15_67],Kd,"P=Nap-dU, C3 spacer at 44",0.15 nM
CCGTTCAAGTGCTTGTATGATTTAAATGGA [4867-31_153],Kd,P=Nap-dU,0.21 nM
CCGTTCAAGTGCTTTAGATTTAAATGG [4867-31_185],Kd,"NapdU at P, C3 spacer 15,18, 2'-OMe 6,9,12,17,28,29",0.26 nM
CCCTCCATCAGCCGTTCAAGTGCTTGTAGGATTTAAATGGAATTGGAGG [4867-15_73],Kd,"P=Nap-dU, C3 spacer at 50",0.17 nM
CCCTCCATCAGCCGTTCAAGTGCTTGTAGGATTTAAATGAATTGGAGGA [4867-15_63],Kd,"P=Nap-dU, C3 spacer at 40",15 nM
CCCTCCATCAGCCGTTCAAGTGCTTGAGGATTTAAATGGAATTGGAGGA [4867-15_50],Kd,"P=Nap-dU, C3 spacer at 27",3.5 nM
CCCTCCATCAGCCGTTCAAGTGCTTGTAGGATTTAAATGGATTGGAGGA [4867-15_65],Kd,"P=Nap-dU, C3 spacer at 42",0.13 nM
AGCCGTTCAAGTGCTTGTAGGATTTAAATGGA [4867-31_68],Kd,"P=Nap-dU, 2'-OMe C4 (inferred, superscript lost)",7.55 nM
CCGTTCAAGTGCTTGTAGGATTTAAATGG [4867-31_479],Kd,"as 4867-31_192, 2'-OMe 1, PS 24",0.026 nM
AGCCGTTAAGTGCTTGTAGGATTTAAATGGA [4867-31_101],Kd,P=Nap-dU,5.89 nM
AGCCGTTCAAGTGCTTGTAGGATTTAAATGGA [4867-31_95],Kd,"P=Nap-dU, 2'-OMe G31",0.19 nM
CCGTTGAAGTGCTTGTAGGATTTAAATGGA [4867-31_146],Kd,P=Nap-dU,5.98 nM
CCGTTCAAGTGCTTGTAGGATTTAAATGG [4867-31_482],Kd,"as 4867-31_192, PS 24,25,26",0.024 nM
CCGTTCAAGTGCTTGTAGGATTTAAATGG [4867-31_163],Kd,"NapdU at P, 2'-OMe 27",0.26 nM
CCGTTCAAGTGCTTGTAGGATTTAAATGG [4867-31_429],Kd,"as 4867-31_192, PS 3' of 27, 3' inverted dT",0.012 nM
AGCCGTTCAAGTGCTTGTAGGATTTAAATGGA [4867-31_85],Kd,"P=Nap-dU, 2'-OMe G21",25.8 nM
CCGTTCAAGTGCTTGTAGGATTTAAATGG [4867-31_483],Kd,"as 4867-31_192, PS 24,25",0.032 nM
GCCGTTCAAGTGCTTGTAGGATTTAAATGG [4867-31_144],Kd,NapdU at P,0.2 nM
CCCTCCATCAGCCGTTCAAGTGCTTGTAGGATTTAAATGGATTGGAGGA [4867-15_64],Kd,"P=Nap-dU, C3 spacer at 41",0.22 nM
AGCCGTTCAAGTGCTTGTAGGATTTAAATGGA [4867-31_92],Kd,"P=Nap-dU, 2'-OMe A28",8.87 nM
CCCTCCATCAGCCGTTCAAGTCTTGTAGGATTTAAATGGAATTGGAGGA [4867-15_45],Kd,"P=Nap-dU, C3 spacer at 22",3.5 nM
CCCTCCATCAGCCGTTCAAGTGCTTGTAGGATTTAAATGGAATTGGAGA [4867-15_71],Kd,"P=Nap-dU, C3 spacer at 48",0.24 nM
CCGTTCAAGTGCTTGTAGGATTTAAATGG [4867-31_159],Kd,"NapdU at P, 2'-OMe 16",0.56 nM
CCGTTCAAGTGCTTGTAGGATTTAAATGG [4867-31_442],Kd,[1],0.015 nM
CCGTTCAAGTGCTTGTAGGATTTAAATGG [4867-31_422],Kd,"as 4867-31_192, PS 3' of 19, 3' inverted dT",0.0095 nM
AGCCGTTCAAGTGCTTGTAGGATTTAAATGGA [4867-31_73],Kd,"P=Nap-dU, 2'-OMe A9",5.99 nM
AGCCGTTCAAGTGCTTGTAGGATTTAAATGGA [4867-31_96],Kd,"P=Nap-dU, 2'-OMe A32",0.13 nM
AGCCGTTCAAGTGCTTGTAGGATTTAAATGGA [4867-31_77],Kd,"P=Nap-dU, 2'-OMe G13",6.64 nM
CCGTTCAAGTGCTTTAGGATTTAAATGG [4867-31_187],Kd,"2'-OMe G9,A17, C3 spacer at 15, all P are NapdU, target taken as VEGF-121",0.032 nM
CCCTCCATCAGCCGTTCAAGTGCTTGTAGGATTTAAATGGAATTGGGGA [4867-15_70],Kd,"P=Nap-dU, C3 spacer at 47",0.68 nM
CCCTCCATCAGCCGTTCAAGTGCTTGTAGATTTAAATGGAATTGGAGGA [4867-15_53],Kd,"P=Nap-dU, C3 spacer at 30",23 nM
AGCCGTTCAAGTGCTTGTAGGATTTAAATGGA [4867-31_81],Kd,"P=Nap-dU, 2'-OMe G17",0.44 nM
CCGTTCAAGTGCTTGTAGGATTTAAATGG [4867-31_143],Kd,"NapdU at 4,5,10,13,14,16,21,22,23,27, rest DNA, SB18T, 37 C, Table 13 gives 0.14 nM",0.17 nM
CCGTTCAAGTGCTTGTAGGATTTAAATGG [4867-31_161],Kd,"2'-OMe-NapU at 22, other P are NapdU, target taken as VEGF-121",0.064 nM
CCGTTCAAGTGCTTGTAGGATTTAAATGG [4867-31_420],Kd,"as 4867-31_192, PS 3' of 14, 3' inverted dT",0.018 nM
CCGTTCAAGTGCTTGTAGGATTTAAATGG [4867-31_160],Kd,"NapdU at P, 2'-OMe 21",1.5 nM
CCGTTCAAGTGCTTTAGGATTTAAATGG [4867-31_188],Kd,"NapdU at P, C3 spacer 15, 2'-OMe 9,17,18,28,29 as printed",0.038 nM
CCGTTCAAGTGCTTGTAGGATTTAAATGG [4867-31_444],Kd,"as 4867-31_192 plus PS 3' of G28, 3'-idT, PS walk",0.0075 nM
CCGTTCAAGTGCTTATAGGATTTAAATGGA [4867-31_148],Kd,P=Nap-dU,0.53 nM
AGCCGTTCAAGTGCTTGTAGGATTTAAATGGA [4867-31_84],Kd,"P=Nap-dU, 2'-OMe G20",0.21 nM
CCCTCCATCGCCGTTCAAGTGCTTGTAGGATTTAAATGGAATTGGAGGA [4867-15_33],Kd,"P=Nap-dU, C3 spacer at 10",0.12 nM
AGCCGTTCAAGTGCTTGTAGGATTTAAATGGA [4867-31_67],Kd,"P=Nap-dU, 2'-OMe C3 (inferred, superscript lost)",0.33 nM
AGCCGTTCAAGTGCTTGTAGATTTAAATGGA [4867-31_99],Kd,"P=Nap-dU, C3 spacer at 20",0.22 nM
AGCCGTTCAAGTGCTTGTAGGATTTAAATGGA [4867-31_90],Kd,"P=Nap-dU, 2'-OMe A26",2.85 nM
CCGTTCAAGTGCTTGTAGGATTTAAATGG [4867-31_478],Kd,"as 4867-31_192, PS 25,26",0.019 nM
CCGTTCAAGTGCTTGTAGGATTTAAATGG [4867-31_409],Kd,"as 4867-31_192, PS 3' of 1, 3' inverted dT",0.011 nM
CCGTTCAAGTGCTTGTAGGATTTAAATGG [4867-31_411],Kd,"as 4867-31_192 plus PS 3' of G3, 3'-idT, 29259-fold loss from PS at G3",320 nM
CCGTTCAAGTGCTTGTAGGATTTAAATGG [4867-31_439],Kd,"as 4867-31_192, PS 3' of 9, 3' inverted dT",0.024 nM
CCCTCCATCAGCCTTCAAGTGCTTGTAGGATTTAAATGGAATTGGAGGA [4867-15_37],Kd,"P=Nap-dU, C3 spacer at 14",30 nM
CCGTTCAAGTGCTTCTAGGATTTAAATGGA [4867-31_149],Kd,P=Nap-dU,0.27 nM
CCGTTCAAGTGCTTGTAGGATTTAAATGG [4867-31_441],Kd,[1],0.017 nM
CCGTTCAAGTGCTTGTAGGATTTAAATGG [4867-31_410],Kd,"as 4867-31_192, PS 3' of 2, 3' inverted dT",0.016 nM
CCGTTCAAGTGCTTGTAGGATTTAAATGG [4867-31_191],Kd,"NapdU at P, 2'-OMe 9,15,17,18,28,29 as printed",0.1 nM
AGCCGTTCAAGTGCTTGTAGGATTTAAATGGA [4867-31_74],Kd,"P=Nap-dU, 2'-OMe A10",3.14 nM
CCGTTCAAGTGCTTGTAGGATTTAAATGG [4867-31_423],Kd,"as 4867-31_192, PS 3' of 20, 3' inverted dT",0.018 nM
AGCCGTTCAAGTGCTTGTAGGATTTAAATGGA [4867-31_94],Kd,"P=Nap-dU, 2'-OMe G30",0.21 nM
